Experimental data taken from patent publication US20250297004A1, “NECTIN-4 BINDING AGENTS” (INNATE PHARMA, priority 2022, published 2025).
Where a chain is given by its changes, count along the chain named.

T1: human Nectin-4 (Homo sapiens, UniProt Q96NY8)
T1 sequence (Q96NY8 32-510): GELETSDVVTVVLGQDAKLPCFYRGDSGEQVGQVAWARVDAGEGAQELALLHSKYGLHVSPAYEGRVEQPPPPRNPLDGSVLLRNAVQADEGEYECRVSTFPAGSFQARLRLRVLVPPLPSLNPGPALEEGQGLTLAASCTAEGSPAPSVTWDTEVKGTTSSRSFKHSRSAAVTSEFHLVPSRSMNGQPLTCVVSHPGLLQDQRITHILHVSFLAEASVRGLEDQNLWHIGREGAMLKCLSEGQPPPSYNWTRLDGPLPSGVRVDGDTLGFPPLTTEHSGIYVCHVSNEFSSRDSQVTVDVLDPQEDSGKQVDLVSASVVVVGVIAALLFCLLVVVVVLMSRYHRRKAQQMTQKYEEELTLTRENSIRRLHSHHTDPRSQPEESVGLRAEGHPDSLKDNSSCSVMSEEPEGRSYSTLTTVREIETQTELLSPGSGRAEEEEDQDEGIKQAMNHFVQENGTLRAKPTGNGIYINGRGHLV

T2: human Nectin-4 expressed on cells (human, UniProt Q96NY8 32-510)
T2 sequence: T1 sequence (Q96NY8 32-510)

B1: H4L2 (antibody, human IgG1, V domains shown)
VH: QVQLVQSGAEVKKPGASVKVSCKASGYIFTSYWMHWVKQAPGQGLEWMGEIDPSDSYTNYNQKFKGRVTMTLDKSTSTTYMELSSLRSEDTAVYYCARGYGNYGDYWGQGTLVTVSS
VL: DVVMTQSPLSNPVTPGEPASISCRSSKSLLHSNGITYLYWYLQKPGQSPQLLIYQMSNLASGVPDRFSSSGSGTDFTLKISRVEAEDVGVYYCAQNLELPWTFGGGTKVEIK
notes: human IgG1 isotype
B2: H7L2 (antibody, human IgG1, V domains shown)
VH: B1 VH with A40R, M48I, M70L
VL: B1 VL
notes: human IgG1 isotype
B3: H6L3 (antibody, human IgG1, V domains shown)
VH: B1 VH with A40R, M48I
VL: B1 VL with P8A
notes: human IgG1 isotype
B4: H5L2 (antibody, human IgG1, V domains shown)
VH: B1 VH with A40R
VL: B1 VL
notes: human IgG1 isotype
B5: H4L3 (antibody, human IgG1, V domains shown)
VH: B1 VH
VL: B1 VL with P8A
notes: human IgG1 isotype
B6: H5L1 (antibody, human IgG1, V domains shown)
VH: B1 VH with A40R
VL: B1 VL with N11L
notes: human IgG1 isotype
B7: H6L1 (antibody, human IgG1, V domains shown)
VH: B1 VH with A40R, M48I
VL: B1 VL with N11L
notes: human IgG1 isotype
B8: H6L2 (antibody, human IgG1, V domains shown)
VH: B1 VH with A40R, M48I
VL: B1 VL
notes: human IgG1 isotype
B9: H7L1 (antibody, human IgG1, V domains shown)
VH: B1 VH with A40R, M48I, M70L
VL: B1 VL with N11L
notes: human IgG1 isotype
B10: H7L3 (antibody, human IgG1, V domains shown)
VH: B1 VH with A40R, M48I, M70L
VL: B1 VL with P8A
notes: human IgG1 isotype

target: T1, human Nectin-4; assay: Binding to human Nectin-4 by SPR; conditions: SPR association constant; second set (Table 7)
Procedure: The antibodies in Table 3 of Example 3 were cloned as human IgG1 isotype antibodies, produced and purified, then tested for binding to human Nectin-4. Affinity of the 16 humanized variants, as well as their association and dissociation constants were assessed by SPR analysis. Table 4 summarizes all the calculated constants (Affinity constant KD (nM), association constant ka (1/Ms) and dissociation constant kd (1/s)).
The antibodies in Table 6 of Example 5 were cloned as human IgG1 isotype antibodies, produced and purified, then tested for binding to human Nectin-4. Affinity of the 16 humanized variants, as well as their association and dissociation constants were assessed by SPR analysis. Table 7 summarizes all the calculated constants (Affinity constant KD (nM), association constant ka (1/Ms) and dissociation constant kd (1/s)).

Molecule	ka
B1	200000 M⁻¹ s⁻¹
B2	160000 M⁻¹ s⁻¹
B3	130000 M⁻¹ s⁻¹
B4	220000 M⁻¹ s⁻¹
B5	250000 ± 30000 M⁻¹ s⁻¹
B6	230000 M⁻¹ s⁻¹
B7	190000 M⁻¹ s⁻¹
B8	140000 M⁻¹ s⁻¹
B9	200000 M⁻¹ s⁻¹
B10	110000 M⁻¹ s⁻¹

same assay, conditions: SPR dissociation constant; second set (Table 7)

Molecule	kd
B1	0.0054 s⁻¹
B2	0.0063 s⁻¹
B3	0.0051 s⁻¹
B4	0.0053 s⁻¹
B5	0.0052 ± 0.0002 s⁻¹
B6	0.0056 s⁻¹
B7	0.0062 s⁻¹
B8	0.0058 s⁻¹
B9	0.006 s⁻¹
B10	0.0055 s⁻¹

same assay, conditions: SPR; human IgG1 isotype antibodies; second set (Table 7)

Molecule	Kd
B1	0.0268 µM
B2	0.0395 µM
B3	0.0386 µM
B4	0.0238 µM
B5	0.0216 ± 0.0011 µM
B6	0.0245 µM
B7	0.0321 µM
B8	0.0413 µM
B9	0.0297 µM
B10	0.049 µM

target: T2, human Nectin-4 expressed on cells; assay: cell-based or functional assay; conditions: not given

Molecule	internalization efficiency on SUM190, normalized to chimeric parental antibody (Fab-ZAP, CTG), experiment 1	internalization efficiency on SUM190, normalized to chimeric parental antibody (Fab-ZAP, CTG), experiment 2
B1	83.6 % of chimeric parental	67.6 % of chimeric parental
B2	89.6 % of chimeric parental	74.8 % of chimeric parental
B3	78.7 % of chimeric parental	92.8 % of chimeric parental
B4	81.3 % of chimeric parental	86 % of chimeric parental
B5	81.9 % of chimeric parental	61 % of chimeric parental
B6	71.5 % of chimeric parental	52.4 % of chimeric parental
B7	71.3 % of chimeric parental	54.5 % of chimeric parental
B8	69.7 % of chimeric parental	63.5 % of chimeric parental
B9	129 % of chimeric parental	73.1 % of chimeric parental
B10	88.5 % of chimeric parental	61.3 % of chimeric parental

target: T2, human Nectin-4 expressed on cells; assay: cell-based or functional assay; conditions: not given; remark: another data set of the same source

Molecule	internalization efficiency on MDA-MB-468, normalized to chimeric parental antibody (Fab-ZAP, CTG), first column	internalization efficiency on MDA-MB-468, normalized to chimeric parental antibody (Fab-ZAP, CTG), second column
B1	64.2 % of chimeric parental	64.2 % of chimeric parental
B2	58.7 % of chimeric parental	58.7 % of chimeric parental
B3	66.3 % of chimeric parental	66.3 % of chimeric parental
B4	39.4 % of chimeric parental	39.4 % of chimeric parental
B5	43.8 % of chimeric parental	43.8 % of chimeric parental
B6	33.4 % of chimeric parental	33.4 % of chimeric parental
B7	61.6 % of chimeric parental	61.6 % of chimeric parental
B8	58.5 % of chimeric parental	58.5 % of chimeric parental
B9	79 % of chimeric parental	79 % of chimeric parental
B10	51.8 % of chimeric parental	51.8 % of chimeric parental

target: T2, human Nectin-4 expressed on cells; assay: flow cytometry on SUM190 cells, MedFI at saturation; conditions: not given
Procedure: The humanized antibodies in Table 3 of Example 3 and in Table 6 of Example 5 were cloned, produced and purified, then tested for binding to Nectin-4 expressing cells by flow cytometry. Binding of humanized variants in human IgG1 format was determined on the SUM190 cell line expressing high levels of Nectin-4.

Molecule	Max MedFi
B1	24400 MedFI
B2	23400 MedFI
B3	24800 MedFI
B4	25300 MedFI
B5	24800 MedFI
B6	18300 MedFI
B7	18300 MedFI
B8	24800 MedFI
B9	17800 MedFI
B10	25000 MedFI

target: human Nectin-4 (protein used in the SPR affinity measurements) (human) (UniProt Q96NY8); assay: SPR, human IgG1; conditions: not given

Molecule	Kd	koff	kon
B1	0.0268 µM	0.0054 s⁻¹	200000 M⁻¹ s⁻¹
B2	0.0395 µM	0.0063 s⁻¹	160000 M⁻¹ s⁻¹
B3	0.0386 µM	0.0051 s⁻¹	130000 M⁻¹ s⁻¹
B4	0.0238 µM	0.0053 s⁻¹	220000 M⁻¹ s⁻¹
B5	0.0216 µM	0.0052 s⁻¹	250000 M⁻¹ s⁻¹
B6	0.0245 µM	0.0056 s⁻¹	230000 M⁻¹ s⁻¹
B7	0.0321 µM	0.0062 s⁻¹	190000 M⁻¹ s⁻¹
B8	0.0413 µM	0.0058 s⁻¹	140000 M⁻¹ s⁻¹
B9	0.0297 µM	0.006 s⁻¹	200000 M⁻¹ s⁻¹
B10	0.049 µM	0.0055 s⁻¹	110000 M⁻¹ s⁻¹
